Literature values as cited in publication PMC3350600.

Target: PP1 (Homo sapiens) (UniProt P62136)
Sequence of UniProt P62136 (P62136 2-330): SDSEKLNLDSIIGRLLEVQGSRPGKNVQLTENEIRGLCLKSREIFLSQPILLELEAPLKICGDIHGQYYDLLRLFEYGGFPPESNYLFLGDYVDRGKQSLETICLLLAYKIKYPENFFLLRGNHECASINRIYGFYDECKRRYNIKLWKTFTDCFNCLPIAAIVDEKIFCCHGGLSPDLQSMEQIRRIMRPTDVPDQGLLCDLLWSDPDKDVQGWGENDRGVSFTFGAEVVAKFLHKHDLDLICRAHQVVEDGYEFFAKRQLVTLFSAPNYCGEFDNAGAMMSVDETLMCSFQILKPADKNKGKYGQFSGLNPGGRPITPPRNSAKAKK

Kd: 8 nM
Substance: Spinophilin PP1-binding domain (from UniProt O35274)
